Patent publication US20100256338A1 (Hoffmann-La Roche, published 2010)

How the values were obtained:
EGFR-ECD = target: T1, EGFR-ECD (human, UniProt P00533 25-645); experiment: SPR (Biacore T100), antibody captured by anti-human IgG, EGFR-ECD as analyte, 25 C
T1 construct: extracellular domain; also called human EGF-Receptor

[1] = target: T2, IGF-1R (soluble analyte in SPR) (human, UniProt P08069 31-932, limits assumed); experiment: SPR (Biacore T100), antibody captured by anti-human IgG, IGF-1R as analyte, 25 C
T2 construct: also called human IGF1-Receptor

Kd (EGFR-ECD) [nM] | Kd [1] [nM] | Binder
0.5 | – | humanized <EGFR>ICR62 (antibody, V domains shown, Humanized rat anti-EGFR antibody, 'wildtype' IgG parent; also called humanized rat anti-EGFR antibody <EGFR>ICR62) VH: QVQLVQSGAEVKKPGSSVKVSCKASGFTFTDYKIHWVRQAPGQGLEWMGYFNPNSGYSTYAQKFQGRVTITADKSTSTAYMELSSLRSEDTAVYYCARLSPGGYYVMDAWGQGTTVTVSS VL: DIQMTQSPSSLSASVGDRVTITCRASQGINNYLNWYQQKPGKAPKRLIYNTNNLQTGVPSRFSGSGSGTEFTLTISSLQPEDFATYYCLQHNSFPTFGQGTKLEIKR
0.5 | 11 | scFab-XGFR2_2720 (bispecific antibody) chain 1: not shown chain 2: DIQMTQSPSSLSASVGDRVTITCRASQGINNYLNWYQQKPGKAPKRLIYNTNNLQTGVPSRFSGSGSGTEFTLTISSLQPEDFATYYCLQHNSFPTFGQGTKLEIKRTVAAPSVFIFPPSDEQLKSGTASVVCLLNNFYPREAKVQWKVDNALQSGNSQESVTEQDSKDSTYSLSSTLTLSKADYEKHKVYACEVTHQGLSSPVTKSFNRGEC
